Test results as given in the supplement of paper PMC11246515.
± gives the standard deviation of the averaged measurements.

Assay: total protein half-life in vivo (active degradation + dilution); higher = more stable protein
[1] = E. coli NCM3722 delta-clpP delta-lon delta-hslV, growth: N-lim chemostat, doubling time 6 h
[2] = E. coli NCM3722 delta-clpP, growth: N-lim chemostat, doubling time 6 h
[3] = E. coli NCM3722 delta-hslV, growth: N-lim chemostat, doubling time 6 h
[4] = E. coli NCM3722 delta-lon, growth: N-lim chemostat, doubling time 6 h
[5] = E. coli NCM3722 delta-smpB, growth: N-lim chemostat, doubling time 6 h
[6] = wild type E. coli NCM3722, growth: C-lim chemostat, doubling time 3 h
[7] = wild type E. coli NCM3722, growth: C-lim chemostat, doubling time 6 h
[8] = wild type E. coli NCM3722, growth: C-lim chemostat, doubling time 12 h
[9] = wild type E. coli NCM3722, growth: N-lim chemostat, doubling time 6 h
[10] = wild type E. coli NCM3722, growth: N-lim chemostat, doubling time 12 h
[11] = wild type E. coli NCM3722, growth: P-lim chemostat, doubling time 6 h
[12] = wild type E. coli NCM3722, growth: P-lim chemostat, doubling time 12 h

| Sequence | total protein half-life in vivo [1] [h] | total protein half-life in vivo [2] [h] | total protein half-life in vivo [3] [h] | total protein half-life in vivo [4] [h] | total protein half-life in vivo [5] [h] | total protein half-life in vivo [6] [h] | total protein half-life in vivo [7] [h] | total protein half-life in vivo [8] [h] | total protein half-life in vivo [9] [h] | total protein half-life in vivo [10] [h] | total protein half-life in vivo [11] [h] | total protein half-life in vivo [12] [h] |
| --- | --- | --- | --- | --- | --- | --- | --- | --- | --- | --- | --- | --- |
| MKVLTVFGTRPEAIKMAPLVHALAKDPFFEAKVCVTAQHREMLDQVLKLFSIVPDYDLNIMQPGQGLTEITCRILEGLKPILAEFKPDVVLVHGDTTTTLATSLAAFYQRIPVGHVEAGLRTGDLYSPWPEEANRTLTGHLAMYHFSPTETSRQNLLRENVADSRIFITGNTVIDALLWVRDQVMSSDKLRSELAANYPFIDPDKKMILVTGHRRESFGRGFEEICHALADIATTHQDIQIVYPVHLNPNVREPVNRILGHVKNVILIDPQEYLPFVWLMNHAWLILTDSGGIQEEAPSLGKPVLVMRDTTERPEAVTAGTVRLVGTDKQRIVEEVTRLLKDENEYQAMSRAHNPYGDGQACSRILEALKNNRISL | 4.18 ± 0.042 | 4.52 ± 0.26 | 4.56 ± 0.14 | 4.96 ± 0.82 | 3.55 ± 0.33 | 3.23 ± 0.27 | 5.8 ± 0.64 | 10.5 ± 2.5 | 4.16 ± 0.4 | 8.18 ± 0.94 | 6.17 ± 0.78 | 10.1 ± 1.9 |
| MKPGCTLFFLLCSALTVTTEAHAQTPDTATTAPYLLAGAPTFDLSISQFREDFNSQNPSLPLNEFRAIDSSPDKANLTRAASKINENLYASTALERGTLKIKSIQMTWLPIQGPEQKAAKAKAQEYMAAVIRTLTPLMTKTQSQKKLQSLLTAGKNKRYYTETEGALRYVVADNGEKGLTFAVEPIKLALSESLEGLNK | 6.2 ± 0.26 | 5.91 ± 0.5 | 5.05 ± 0.18 | 5.3822 ± 0.0028 | 5.12 ± 0.43 | 2.86 ± 0.12 | 5.26 ± 1.2 | 8.36 ± 0.16 | 4.14 ± 0.39 | 8.35 ± 1.6 | 3.75 ± 0.27 | 8.75 ± 1.1 |
| MKQGLQLRLSQQLAMTPQLQQAIRLLQLSTLELQQELQQALESNPLLEQIDTHEEIDTRETQDSETLDTADALEQKEMPEELPLDASWDTIYTAGTPSGTSGDYIDDELPVYQGETTQTLQDYLMWQVELTPFSDTDRAIATSIVDAVDETGYLTVPLEDILESIGDEEIDIDEVEAVLKRIQRFDPVGVAAKDLRDCLLIQLSQFDKTTPWLEEARLIISDHLDLLANHDFRTLMRVTRLKEDVLKEAVNLIQSLDPRPGQSIQTGEPEYVIPDVLVRKHNGHWTVELNSDSIPRLQINQHYASMCNNARNDGDSQFIRSNLQDAKWLIKSLESRNDTLLRVSRCIVEQQQAFFEQGEEYMKPMVLADIAQAVEMHESTISRVTTQKYLHSPRGIFELKYFFSSHVNTEGGGEASSTAIRALVKKLIAAENPAKPLSDSKLTSLLSEQGIMVARRTVAKYRESLSIPPSNQRKQLV | 5.34 ± 0.089 | 4.45 ± 0.42 | 3.48 ± 0.12 | 4.78 ± 0.64 | 3.657 ± 0.022 | 2.57 ± 0.1 | 4.75 ± 0.098 | 7.27 ± 1.6 | 3.94 ± 0.43 | 5.68 ± 0.088 | 3.61 ± 0.56 | 6.22 ± 0.58 |
| MKDKVYKRPVSILVVIYAQDTKRVLMLQRRDDPDFWQSVTGSVEEGETAPQAAMREVKEEVTIDVVAEQLTLIDCQRTVEFEIFSHLRHRYAPGVTRNTESWFCLALPHERQIVFTEHLAYKWLDAPAAAALTKSWSNRQAIEQFVINAA [P0AFC0] | 3.93 | > 8 |  | 3.07 | 2.07 |  | > 8 | 4.68 ± 0.41 | 2.22 ± 0.26 | 3.45 | 2.75 ± 0.2 |  |
| MAKSLFRALVALSFLAPLWLNAAPRVITLSPANTELAFAAGITPVGVSSYSDYPPQAQKIEQVSTWQGMNLERIVALKPDLVIAWRGGNAERQVDQLASLGIKVMWVDATSIEQIANALRQLAPWSPQPDKAEQAAQSLLDQYAQLKAQYADKPKKRVFLQFGINPPFTSGKESIQNQVLEVCGGENIFKDSRVPWPQVSREQVLARSPQAIVITGGPDQIPKIKQYWGEQLKIPVIPLTSDWFERASPRIILAAQQLCNALSQVD | 3.92 ± 0.45 | 5.19 ± 0.79 | 6.42 ± 0.87 | 5.93 ± 0.48 | 5.67 ± 0.72 |  | 6.08 ± 0.89 | 4.41 ± 0.44 | 5.44 ± 0.56 | 12.1 ± 1.3 |  | 12.3 ± 0.33 |
